Measurements: patent US20220195067A1 (LAMKAP BIO BETA, published 2022)

T1: human CEACAM5 on CEACAM5-expressing cancer cell lines (human, UniProt P06731 35-685)
T1 construct: whole, on cells; also called CEACAM5 on SK-CO-1, MKN-45, HPAF-II, SNU-C1, Ls174T, LoVo cells
T1 sequence (looked up): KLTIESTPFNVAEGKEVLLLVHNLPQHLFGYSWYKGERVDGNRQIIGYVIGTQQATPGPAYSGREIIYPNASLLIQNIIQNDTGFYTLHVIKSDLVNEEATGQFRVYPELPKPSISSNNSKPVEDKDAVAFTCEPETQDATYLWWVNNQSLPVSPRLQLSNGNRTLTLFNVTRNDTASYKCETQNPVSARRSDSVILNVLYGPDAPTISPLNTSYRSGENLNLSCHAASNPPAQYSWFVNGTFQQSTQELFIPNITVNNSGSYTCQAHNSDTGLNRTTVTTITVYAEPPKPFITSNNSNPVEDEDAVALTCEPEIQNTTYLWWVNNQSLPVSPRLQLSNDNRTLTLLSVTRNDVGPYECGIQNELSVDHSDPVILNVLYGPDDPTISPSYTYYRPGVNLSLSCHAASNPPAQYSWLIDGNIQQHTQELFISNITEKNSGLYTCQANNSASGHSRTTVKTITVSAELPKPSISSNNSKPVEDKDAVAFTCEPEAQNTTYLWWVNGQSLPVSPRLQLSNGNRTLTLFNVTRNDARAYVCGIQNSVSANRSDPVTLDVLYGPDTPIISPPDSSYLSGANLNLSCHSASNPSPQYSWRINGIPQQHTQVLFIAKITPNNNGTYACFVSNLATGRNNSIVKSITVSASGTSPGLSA

T2: his-tagged recombinant huCEACAM3 (R&D Systems, #9868-CM) (human, UniProt P40198 35-155)
T2 construct: Bought reagent; also called rec. hCEACAM3; recombinant soluble human CEACAM3; not shown: His tag
T2 sequence (looked up): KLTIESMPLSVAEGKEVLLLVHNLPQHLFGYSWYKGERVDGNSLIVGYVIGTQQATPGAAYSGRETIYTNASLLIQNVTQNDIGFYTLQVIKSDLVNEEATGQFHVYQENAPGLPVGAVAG


Legend:
[1] = molecular target: T1, human CEACAM5 on CEACAM5-expressing …; test: flow cytometry on SNU-C1 cells (carry CEACAM5 and CD47), PE anti-human IgG Fc
Protocol: (§1) The binding of CD47×CEACAM5 bispecific antibodies was tested on CEACAM5-expressing human gastric adenocarcinoma cells (e.g. MKN-45), on CEACAM5-expressing human colorectal cancer cells (SK-CO-1, SNU-C1, Ls174T, and LoVo), and on CEACAM5-expressing pancreatic adenocarcinoma cells (HPAF-II).
(§2) Cells were harvested, counted, checked for viability and resuspended at 3×10⁶ cells/ml in FACS buffer (PBS 2% BSA, 0.1% NaN3). 100 μl of the cell suspension was distributed in V-bottom 96-well plates (3×10⁵ cells/well). The supernatant was removed by centrifugation 3 minutes at 4° C., 1300 rpm. Increasing concentrations of the antibody according to the invention were then added into the wells and incubated for 15 minutes at 4° C. Cells were washed twice with cold FACS buffer and re-incubated for further 15 minutes at 4° C. with the PE (R-phycoerythrin)-conjugated mouse anti-human IgG Fc secondary antibody (SouthernBiotech, pre-diluted 1:100 in FACS buffer). Cells were washed twice with cold FACS buffer and resuspended in 300 μl FACS buffer with 1:15000-diluted SytoxBlue (Life Technologies). Fluorescence, specifically mean fluorescence […] (MFI), was determined using a Cytoflex […] flow cytometer. Binding curves and […] and Emax values were obtained and calculated using GraphPad Prism7 software.

[2] = molecular target: T1, human CEACAM5 on CEACAM5-expressing …; test: flow cytometry on SK-CO-1 cells (carry CEACAM5 and CD47), PE anti-human IgG Fc
Protocol: as §1, §2

[3] = molecular target: T1, human CEACAM5 on CEACAM5-expressing …; test: flow cytometry on LoVo cells (carry CEACAM5 and CD47), PE anti-human IgG Fc
Protocol: as §1, §2

[4] = molecular target: T1, human CEACAM5 on CEACAM5-expressing …; test: flow cytometry on HPAF-II cells (carry CEACAM5 and CD47), PE anti-human IgG Fc
Protocol: as §1, §2

[5] = molecular target: T2, his-tagged recombinant huCEACAM3 (R&D …); test: BLI (Octet), KD on CEACAM3 against KD on CEACAM5
Protocol: The affinity of the anti-human CEACAM5 arm of the CD47×CEACAM5 bispecific antibodies of the invention for recombinant soluble human CEACAM5 was determined using the Bio-Layer Interferometry (BLI) technology. An OctetRED96 instrument and Protein A biosensors were used (Sartorius). The measurement was performed at 30° C. After hydration, pre-conditioning and a baseline step in Kinetic buffer (PBS, 0.002% Tween 20, 0.01% BSA, Kathon; Sartorius), biosensors were loaded for 5 min with the κλ body at 0.5 μg/mL in Kinetic buffer. Then, biosensors were dipped into a serial dilution of recombinant human CEACAM5 Extra Cellular Domain (ECD) soluble protein (produced in house), starting at 50 nM with a 2× dilution factor. The association and dissociation phases were monitored for 600 seconds each. Biosensors were regenerated using 10 mM glycine pH 1.7. A standard acquisition rate was applied (5.0 Hz, averaging by 20). Curves were processed with a reference well subtraction, a Y alignment on the baseline, without interstep correction. The affinity was measured applying a 1:1 global fitting model on the full association and dissociation steps. The binding affinity (KD) of the bispecific antibodies of the invention to recombinant human CD47 was determined by the same experimental procedure.
The affinity of the anti-human CEACAM5 arms of the CD47×CEACAM5 bispecific antibodies of the invention for recombinant soluble human CEACAM3 was determined using the Bio-Layer Interferometry (BLI) technology and an OctetRED96 instrument. HIS1K biosensors (Sartorius), loaded with an anti-His tag antibody, were used to capture his-tagged recombinant huCEACAM3 (R&D Systems, #9868-CM). The measurement was performed at 30° C. After hydration, pre-conditioning and a baseline step in Kinetic buffer (PBS, 0.002% Tween 20, 0.01% BSA, Kathon; Sartorius), biosensors were loaded for 5 min with the recombinant huCEACAM3 at 5 μg/mL in Kinetic buffer. […] The association and dissociation phases were monitored for 60 seconds and 120 seconds respectively. […]

| Binder | EC50 [1] [nM] | Emax (MFI) [1] [MFI] | EC50 [2] [nM] | Emax (MFI) [2] [MFI] | EC50 [3] [nM] | Emax (MFI) [3] [MFI] | EC50 [4] [nM] | Emax (MFI) [4] [MFI] | Fold difference hCEACAM3/hCEACAM5 (ratio of KD) [5] [fold] |
| --- | --- | --- | --- | --- | --- | --- | --- | --- | --- |
| K2AC84 (bispecific antibody, human IgG1, kappa, lambda, Kappa-lambda body; also called CD47xCEACAM5 bispecific antibody K2AC84; AC84 (CEACAM5 arm)) heavy: not shown light 1: QSVLTQPPSVSAAPGQKVTISCSGSSSNIGIGLVSWYQQLPGTAPKLLIYNVNTRPSGIPDRFSGSKSGTSATLGITGLQTGDEADYYCGTWDFSYRVDFGGGTKLTVLGQPKAAPSVTLFPPSSEELQANKATLVCLISDFYPGAVTVAWKADSSPVKAGVETTTPSKQSNNKYAASSYLSLTPEQWKSHRSYSCQVTHEGSTVEKTVAPTECS light 2: not shown | 2.47 | 370000 | 12 | 1e+06 | 16 | 360000 | 8.7 | 1.27e+06 | 137 |
| K2AC100 (bispecific antibody, human IgG1, kappa, lambda, Kappa-lambda body; also called CD47xCEACAM5 bispecific antibody K2AC100; AC100 (CEACAM5 arm)) heavy: not shown light 1: QSVLTQPPSVSAAPGQKVTISCSGSSSNIGYGLVSWYQQLPGTAPKLLIYNGNIRPSGIPDRFSGSKSGTSATLGITGLQTGDEADYYCGTWDFSYRVDFGGGTKLTVLGQPKAAPSVTLFPPSSEELQANKATLVCLISDFYPGAVTVAWKADSSPVKAGVETTTPSKQSNNKYAASSYLSLTPEQWKSHRSYSCQVTHEGSTVEKTVAPTECS light 2: not shown | 3.27 | 300000 | 14.7 | 900000 | 18.7 | 280000 | 8 | 1.1e+06 | 146 |
| K2AC22 (bispecific antibody, human IgG1, kappa, lambda, Kappa-lambda body, human IgG1, one arm for CEACAM5 and one for CD47; comparison antibody from WO2019234576; also called state of the art bispecific CEAxCD47 antibody K2AC22; CD47xCEACAM5 bispecific antibody K2AC22) heavy: not shown light 1: QSVLTQPPSVSAAPGQKVTISCSGSSSNIANGIVSWYQQLPGTAPKLLIYFDNLRPSGIPDRFSGSKSGTSATLGITGLQTGDEADYYCGTWDFSYGIVFGGGTKLTVLGQPKAAPSVTLFPPSSEELQANKATLVCLISDFYPGAVTVAWKADSSPVKAGVETTTPSKQSNNKYAASSYLSLTPEQWKSHRSYSCQVTHEGSTVEKTVAPTECS light 2: not shown | 10.7 | 240000 | 24 | 520000 | 44 | 230000 | 19.3 | 670000 | 83 |
